Key:
[1] = biological target: T1, recombinant BMPER (BMP endothelial cell precursor-derived regulator) ( (recombinant human and …, UniProt Q8N8U9 40-685)); experiment: SPR; BIAcore 2000; IGFBP-4 immobilised at 360 RU on CM5 by amine coupling; 0-320 nM BMPER injected in HBS-EP (0.01 M HEPES pH 7.4, 0.15 M NaCl, 3 mM EDTA, 0.005% P20), 180 s association, 180 s dissociation; 1:1 model with mass transfer; apparent KD = kd/ka; details: both partners purified
T1 construct: BMPER, recombinant protein used as analyte in SPR; whether this holds for the SPR proteins is surmised; Secreted glycoprotein; also called soluble BMPER; source: recombinant
T1 sequence (Q8N8U9 40-685): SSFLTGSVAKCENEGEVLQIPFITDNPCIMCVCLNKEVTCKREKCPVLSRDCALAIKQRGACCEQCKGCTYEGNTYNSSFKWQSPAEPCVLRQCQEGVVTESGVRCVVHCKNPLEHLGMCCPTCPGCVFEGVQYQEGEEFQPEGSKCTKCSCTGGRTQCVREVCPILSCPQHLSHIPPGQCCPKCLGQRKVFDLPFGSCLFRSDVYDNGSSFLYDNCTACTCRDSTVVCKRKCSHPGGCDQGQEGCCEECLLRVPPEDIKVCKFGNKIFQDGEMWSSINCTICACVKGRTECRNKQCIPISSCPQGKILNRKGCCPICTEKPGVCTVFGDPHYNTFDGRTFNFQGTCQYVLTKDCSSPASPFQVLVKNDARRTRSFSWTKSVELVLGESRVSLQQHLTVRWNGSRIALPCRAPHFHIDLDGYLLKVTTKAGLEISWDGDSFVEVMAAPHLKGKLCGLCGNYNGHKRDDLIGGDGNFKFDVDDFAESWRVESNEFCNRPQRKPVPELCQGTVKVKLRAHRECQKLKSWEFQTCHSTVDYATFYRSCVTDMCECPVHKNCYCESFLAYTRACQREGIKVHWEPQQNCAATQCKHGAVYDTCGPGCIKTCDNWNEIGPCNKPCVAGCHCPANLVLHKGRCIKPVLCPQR

[2] = biological target: T1, recombinant BMPER (BMP endothelial cell …); experiment: SPR; BIAcore 2000; BMP-4 immobilised at 430 RU on CM5 by amine coupling; 0-320 nM BMPER or IGFBP-4 injected in HBS-EP; 1:1 model with mass transfer; apparent KD = kd/ka; details: both partners purified

Binder	Kd [1] [nM]	Kd [2] [nM]
recombinant IGFBP-4 (insulin-like growth factor-binding protein 4) (natural protein, UniProt P22692 22-258, looked up, IGFBP4, recombinant protein immobilised or injected in SPR; whether this holds for the SPR proteins is surmised; source: recombinant) DEAIHCPPCSEEKLARCRPPVGCEELVREPGCGCCATCALGLGMPCGVYTPRCGSGLRCYPPRGVEKPLHTLMHGQGVCMELAEIEAIQESLQPSDKDEGDHPNNSFSPCSAHDRRCLQKHFAKIRDRSTSGGKMKVNGAPREDARPVPQGSCQSELHRALERLAASQSRTHEDLYIIPIPNCDRNGNFHPKQCHPALDGQRGKCWCVDRKTGVKLPGGLEPKGELDCHQLADSFRE	6.04 ± 1.86	–
BMP-4 (bone morphogenetic protein 4) (ligand, UniProt P12644 293-408, looked up, BMP4, immobilised on a CM5 chip in SPR) SPKHHSQRARKKNKNCRRHSLYVDFSDVGWNDWIVAPPGYQAFYCHGDCPFPLADHLNSTNHAIVQTLVNSVNSSIPKACCVPTELSAISMLYLDEYDKVVLKNYQEMVVEGCGCR	–	1.5

Reference: paper PMC10002482, “BMPER Improves Vascular Remodeling and the Contractile Vascular SMC Phenotype” (International Journal of Molecular Sciences, 2023)
